Test results taken from US20240093255A1, “BIOSYNTHETIC PRODUCTION OF 2-FUCOSYLLACTOSE” (Conagen Inc., priority 2020, published 2024).

B1: Hs GMD wild type: GDP-mannose-4,6-dehydratase from Homo sapiens, wild type, SEQ ID NO: 9 (protein, listed as Homo sapiens)
chain: MRNVALITGITGQDGSYLAEFLLEKGYEVHGIVRRSSSFNTGRIEHLYKNPQAHIEGNMKLHYGDLTDSTCLVKIINEVKPTEIYNLGAQSHVKISFDLAEYTADVDGVGTLRLLDAVKTCGLINSVKFYQASTSELYGKVQEIPQKETTPFYPRSPYGAAKLYAYWIVVNFREAYNLFAVNGILFNHESPRRGANFVTRKISRSVAKIYLGQLECFSLGNLDAKRDWGHAKDYVEAMWLMLQNDEPEDFVIATGEVHSVREFVEKSFLHIGKTIVWEGKNENEVGRCKETGKVHVTVDLKYYRPTEVDFLQGDCTKAKQKLNWKPRVAFDELVREMVHADVELMRTNPNA
B2: Hs GMD M2: mutant human GMD targeting the GDP-L-fucose allosteric binding pocket, SEQ ID NO: 81 (protein)
chain: MRNVALITGITGQDGSYLAEFLLEKGYEVHGIVRRSSSFNTGRIEHLYKNPQAAIEGNMKLHYGDLTDSTCLVKIINEVKPTEIYNLGAQSHVKISFDLAEYTADVDGVGTLRLLDAVKTCGLINSVKFYQASTSELYGKVQEIPQKETTPFYPRSPYGAAKLYAYWIVVNFREAYNLFAVNGILFNHESPRRGANFVTRKISRSVAKIYLGQLECFSLGNLDAKRDWGHAKDYVEAMWLMLQNDEPEDFVIATGEVHSVREFVEKSFLHIGKTIVWEGKNENEVGRCKETGKVHVTVDLKYYRPTEVDFLQGDCTKAKQKLNWKPRVAFDELVREMVHADVELMRTNPNA
modifications: Homo sapiens GMD mutant
B3: Hs GMD M4: mutant human GMD targeting the GDP-L-fucose allosteric binding pocket, SEQ ID NO: 85 (protein)
chain: MRNVALITGITGQDGSYLAEFLLEKGYEVHGIVRRSSSFNTGRIEHLYKNPQAHIEGNMKLHYGDLTDSTCLVKIINEVKPTEIYNLGAQSHVKISFDLAEYTADVDGVGTLRLLDAVKTCGLINSVKFYQASTSELYGKVQEIPQKETTPFYPRSPYGAAKLYAYWIVVNFREAYNLFAVNGILFNHESPRRGANFVTRKISASVAKIYLGQLECFSLGNLDAKRDWGHAKDYVEAMWLMLQNDEPEDFVIATGEVHSVREFVEKSFLHIGKTIVWEGKNENEVGRCKETGKVHVTVDLKYYRPTEVDFLQGDCTKAKQKLNWKPRVAFDELVREMVHADVELMRTNPNA
modifications: Homo sapiens GMD mutant
B4: Hs GMD M3: mutant human GMD targeting the GDP-L-fucose allosteric binding pocket, SEQ ID NO: 83 (protein)
chain: MRNVALITGITGQDGSYLAEFLLEKGYEVHGIVRRSSSFNTGRIEHLYKNPQAHIEGNMKLHYGDLTDSTCLVKIINEVKPTEIYNLGAQSHVKISFDLAEYTADVDGVGTLRLLDAVKTCGLINSVKFYQASTSELYGKVQEIPQKETTPFYPRSPYGAAKLYAYWIVVNFREAYNLFAVNGILFNHESPRRGANFVTRAISRSVAKIYLGQLECFSLGNLDAKRDWGHAKDYVEAMWLMLQNDEPEDFVIATGEVHSVREFVEKSFLHIGKTIVWEGKNENEVGRCKETGKVHVTVDLKYYRPTEVDFLQGDCTKAKQKLNWKPRVAFDELVREMVHADVELMRTNPNA
modifications: Homo sapiens GMD mutant
B5: Ec WT: GDP-mannose-4,6-dehydratase from Escherichia coli, wild type, SEQ ID NO: 11 (protein, listed as Escherichia coli)
chain: MSKVALITGVTGQDGSYLAEFLLEKGYEVHGIKRRASSFNTERVDHIYQDPHTCNPKFHLHYGDLSDTSNLTRILREVQPDEVYNLGAMSHVAVSFESPEYTADVDAMGTLRLLEAIRFLGLEKKTRFYQASTSELYGLVQEIPQKETTPFYPRSPYAVAKLYAYWITVNYRESYGMYACNGILFNHESPRRGETFVTRKITRAIANIAQGLESCLYLGNMDSLRDWGHAKDYVKMQWMMLQQEQPEDFVIATGVQYSVRQFVEMAAAQLGIKLRFEGTGVEEKGIVVSVTGHDAPGVKPGDVIIAVDPRYFRPAEVETLLGDPTKAHEKLGWKPEITLREMVSEMVANDLEAAKKHSLLKSHGYDVAIALES
B6: At GMD M4: mutant Arabidopsis thaliana GMD targeting the GDP-L-fucose allosteric binding pocket, SEQ ID NO: 79 (protein)
chain: MASENNGSRSDSESITAPKADSTVVEPRKIALITGITGQDGSYLTEFLLGKGYEVHGLIRRSSNFNTQRINHIYIDPHNVNKALMKLHYADLTDASSLRRWIDVIKPDEVYNLAAQSHVAVSFEIPDYTADVVATGALRLLEAVRSHTIDSGRTVKYYQAGSSEMFGSTPPPQSETTPFHPRSPYAASKCAAHWYTVNYREAYGLFACNGILFNHESPRRGENFVTRKITAALGRIKVGLQTKLFLGNLQASRDWGFAGDYVEAMWLMLQQEKPDDYVVATEEGHTVEEFLDVSFGYLGLNWKDYVEIDQRYFRPAEVDNLQGDASKAKEVLGWKPQVGFEKLVKMMVDEDLELAKREKVLVDAGYMDAKQQP
modifications: Arabidopsis thaliana GMD mutant
B7: At GMD M2: mutant Arabidopsis thaliana GMD targeting the GDP-L-fucose allosteric binding pocket, SEQ ID NO: 75 (protein)
chain: MASENNGSRSDSESITAPKADSTVVEPRKIALITGITGQDGSYLTEFLLGKGYEVHGLIRRSSNFNTQRINHIYIDPANVNKALMKLHYADLTDASSLRRWIDVIKPDEVYNLAAQSHVAVSFEIPDYTADVVATGALRLLEAVRSHTIDSGRTVKYYQAGSSEMFGSTPPPQSETTPFHPRSPYAASKCAAHWYTVNYREAYGLFACNGILFNHESPRRGENFVTRKITRALGRIKVGLQTKLFLGNLQASRDWGFAGDYVEAMWLMLQQEKPDDYVVATEEGHTVEEFLDVSFGYLGLNWKDYVEIDQRYFRPAEVDNLQGDASKAKEVLGWKPQVGFEKLVKMMVDEDLELAKREKVLVDAGYMDAKQQP
modifications: Arabidopsis thaliana GMD mutant
B8: At GMD M3: mutant Arabidopsis thaliana GMD targeting the GDP-L-fucose allosteric binding pocket, SEQ ID NO: 77 (protein)
chain: MASENNGSRSDSESITAPKADSTVVEPRKIALITGITGQDGSYLTEFLLGKGYEVHGLIRRSSNFNTQRINHIYIDPHNVNKALMKLHYADLTDASSLRRWIDVIKPDEVYNLAAQSHVAVSFEIPDYTADVVATGALRLLEAVRSHTIDSGRTVKYYQAGSSEMFGSTPPPQSETTPFHPRSPYAASKCAAHWYTVNYREAYGLFACNGILFNHESPRRGENFVTRAITRALGRIKVGLQTKLFLGNLQASRDWGFAGDYVEAMWLMLQQEKPDDYVVATEEGHTVEEFLDVSFGYLGLNWKDYVEIDQRYFRPAEVDNLQGDASKAKEVLGWKPQVGFEKLVKMMVDEDLELAKREKVLVDAGYMDAKQQP
modifications: Arabidopsis thaliana GMD mutant
B9: FutC5: α-1,2-fucosyltransferase candidate from Lachnospiraceae bacterium XBB2008, SEQ ID NO: 29; parent of ASR12 (protein)
chain: MIILQMSGGLGNQMFQYALYLKLKKLGREVKFDDETSYELDNARPVQLAVFDITYPRATRQEVTDMRDSSPAWKDRIRRKLKGRNLKQYTEANYSYDEHVFELDDTYLRGYFQTEKYFSDIRDEIYKTYTMRKDLITEQTTQYEEDILSHENSVSIHIRRGDYMTIEGGEIYAGICTDEFYDSAIKYVLERHPDAVFYLFTNDSSWAEYFCNIHSDVNIHVVEGNTEYFGYLDMYLMSRCKHHIVANSSFSWWGAWLGRDADGMVIAPDPWFNCSNCADIHTDRMILIDPKGELLTDDKGVRNESEE
modifications: Lachnospiraceae bacterium XBB2008
notes: parent of ASR12
B10: FutC10: α-1,2-fucosyltransferase candidate from Thermosynechococcus elongatus, SEQ ID NO: 39 (protein, listed as Thermosynechococcus elongatus)
chain: MIIVRLCGGLGNQMFQYAAGLAAAHRIGSEVKFDTHWFDATCLHQGLELRRVFGLELPEPSSKDLRKVLGACVHPAVRRLLSRRLLRALRPKSLVIQPHFHYWTGFEHLTDNVYLEGYWQSERYFSNIADIIRQQFRFVEPLDPHNAALMDEMQSGVSVSLHIRRGDYFNNPQMRRVHGVDLSEYYPAAVATMIEKTNAERFYVFSDDPQWVLEHLKLPVSYTVVDHNRGAASYRDMQLMSACRHHIIANSTFSWWGAWLNPRPDKVVIAPRHWFNVDVFDTRDLYCPEWIVL
B11: FutC2: α-1,2-fucosyltransferase candidate from Pisciglobus halotolerans, SEQ ID NO: 23 (protein)
chain: MIYTRITSGLGNQMFQYAIAYSYSRKYDMPLILDLTNFKISKKRTYQLDKFKLNDYKKITFKNAPLEIKIFWLVEVLNMISIKLRKKEMKRKNNYNLKSTQFICEKYKEKYNINFDLTNKSLYLSGFWQSPLYFENYRDELIQQFSPNYVLSNKLKEYETKIINCRSVSVHIRRGDFLQHGLFKDVDYQKKAITYLEKKLDNPIFFFFSDDIEWTKEKFKNQKNCFFVSSDSKNSGIEEMYLMSKCENNIIANSTFSWWGAWLNQNQNKIVIAPSTGFGNKDILPKSWYTI
modifications: Pisciglobus halotolerans

Experiment: GDP-L-fucose inhibition assay of GMD enzymes (GDP-4-keto-6-deoxymannose detection)
Assay type: biochemical
Details: 350 μM GDP-L-fucose; 1 mM GDP-mannose, 0.5 mg/mL GMD
Protocol: To test for inhibition, the mutants were expressed and purified as described in Example 7, and assayed at a range of GDP-L-fucose concentrations. The assay conditions were as follows: 50 mM Tris pH 7.5, 1 mM GDP-mannose, 0.5 mM NADP^+, 0.5 mg/mL dehydratase (GMD) enzyme, and 0 μM, 70 μM or 350 μM GDP-L-fucose. The reactions were quenched at 99° C. for 10 minutes, and the enzymes' respective activities were analyzed using the nucleotide sugar LC-MS method by GDP-4-keto-6-deoxymannose detection.
In the case of B1, the retained activity is reported as “less than 5%”. With B2 the retained activity was 80%. For B3, the retained activity was 100%. B4 gave a retained activity of 100%. With B5 the decrease in activity was 80%. In the case of B6, the retained activity is reported as 100%. Work on B7 yielded a retained activity of 40%. In the case of B8, the retained activity is reported as 50%.

Experiment: FutC candidate activity in vitro using the de novo synthesis pathway (2′-FL by HPLC)
Assay type: biochemical
Details: 0.2 mg/mL fucosyltransferase, 1 mM GDP-mannose, 80 mM lactose, room temperature, 16 hours
Protocol: The final step in the novel path to 2′-FL requires an α-1,2-fucosyltransferase. Various FutC candidates were screened for soluble expression in E. coli and fucosyltransferase activity. The candidate enzymes show different solubilities and enzymatic activity for 2′-FL synthesis. For the candidates that have highly soluble expression, their activity was tested in vitro using the de novo synthesis pathway. The reaction conditions were: 50 mM Tris-HCl pH 8.0, 2 mM NADPH, 0.1 mM NADP^+, 1 mM GDP-mannose, 80 mM lactose, 0.9 mg/mL Ec Gmd (SEQ 11), 0.2 mg/mL Ec WcaG (SEQ ID NO: 7) and 0.2 mg/mL of the fucosyltransferase candidates. The reactions were incubated at room temperature for 16 hours. The reactions were quenched by heating at 99° C. for 10 minutes, and then analyzed by HPLC.
With B9 the “α-1,2-fucosyltransferase activity for 2′-FL production” value (“α-1,2-fucosyltransferase activity” for short) was “have α-1,2-fucosyltransferase activity for 2′-FL production”. For B10, the “α-1,2-fucosyltransferase activity” value was “have α-1,2-fucosyltransferase activity for 2′-FL production”. In the case of B11, the “α-1,2-fucosyltransferase activity” value is reported as “have α-1,2-fucosyltransferase activity for 2′-FL production”.
